The target of assay [1] is T1, GSTD1 (C-terminal 81 residues of hD1 receptor) (Homo sapiens, UniProt P21728).
T1 construct: C-terminal 81 amino acids of the hD1 receptor (residues 365-446); made in house; host or cells: S-Calcyon: BL21(DE3) E. coli
T1 sequence (P21728 365-446): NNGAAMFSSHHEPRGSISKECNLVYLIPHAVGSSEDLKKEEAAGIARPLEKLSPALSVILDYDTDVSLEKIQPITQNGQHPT
The assay is described as follows: S-agarose pull-down assay with GSTD1 fusion protein. The class given is binding. The settings on record: immunoblot with D1 receptor antibodies. An excerpt:
For pull-down assays, a 550 bp Nco I-Bgl II fragment from pACT-Calcyon was subcloned into pET30a (Novagen, Madison, Wis.) to produce the S-Calcyon fusion protein containing residues 93-217 of the predicted Calcyon protein as well as an N-terminal tag composed of the 15 residue S peptide of ribonuclease S (Richards, F. M., et al., The Enzymes. ed.: Boyer, P. D., Academic Press, N.Y., pp. 647-806 (1971)). The S-β-galactosidase fusion protein was composed of bacterial β-galactosidase protein tagged at its N-terminus with the S peptide. Fusion proteins were induced in BL2I(DE3) E. coli with IPTG, and coupled to S-agarose resin (Novagen, Madison, Wis.) by incubating soluble fractions of bacterial lysates with resin for 1 h at RT Following incubation, unbound proteins were eliminated by washing the resin three times in 50 volumes of 25 mM HEPES (pH 7.4), 50 mM NaCl. Interaction assays were performed with GSTD1 purified as described (Bergson, C., et al., J. Neurosci. 15:7821-36 (1995)) or solubilized lysates of D1 HEK293 cells in 25 mM HEPES (pH 7.4), 50 mM NaCl, 10% glycerol, 1% bovine serum albumin containing 0.5% NP-40. Peptidel 421-435 ([…]) (SEQ ID No. 3) and Peptide2 ([…]) (SEQ ID No. 4) were synthesized using an Applied Biosystems 430A Peptide Synthesizer using the FastMoc procedures and reagents supplied by Perkin-Elmer, Applied Biosystems division. […]
A general note: A western blot detects proteins with antibodies after separation by electrophoresis.

Assay [2] in a line: binding of 3H-labeled phospholipid vesicles to resin-bound S-Calcyon. The settings on record: 25 μl S-agarose resin, one hour, room temperature. The procedure:
FIG. 4 is a graph showing that calcyon's cytoplasmic domain binds PIP2. S-Calcyon bound to 25 μl of S-agarose resin, or 25 μl of S-agarose resin only was incubated for one hour at room temperature with phospholipid vesicles containing phosphotidylcholine (PC), phosphotidylethanolamine (PE), or PC, PE, and PIP2. Both types of vesicles were radioactively labeled with equivalent amounts of ^3H-phosphatidylcholine. Following incubation, resins were washed three times with ten volumes of buffer (20 mM hepes, pH 7.4), and amounts of bound phospholipid determined by liquid scintillation counting. Results are reported as percent of input radiolabel precipitated. Bars represent average value obtained in three independent assays with standard error of the mean.
Tests were conducted to determine whether Calcyon can bind PIP2 using the S-Calcyon fusion protein. S-Calcyon contains the predicted cytoplasmic domain of Calcyon (residues 93-217) preceded by an ‘S’ tag (for coupling to S-agarose resin). […] Following incubation, resin was washed three times with ten volumes of buffer (20 mM Hepes, pH 7.4), and amounts of bound phospholipid were determined by liquid scintillation counting. […] Results are reported as percent of input radiolabel precipitated, bars represent the standard error of the mean of each value determined in triplicate. […]

For assay [3], the target named is T2, full-length D1 DA receptors (Homo sapiens, UniProt P21728).
T2 construct: expressed in transfected cells; host or cells: D1 HEK293 cell lysate (receptor); BL21(DE3) E. coli (S-Calcyon)
The assay is described as follows: S-agarose pull-down assay with D1 HEK293 cell lysates. The class given is binding. Conditions: detergent solubilized D1 HEK293 lysates. An excerpt:
For pull-down assays, a 550 bp Nco I-Bgl II fragment from pACT-Calcyon was subcloned into pET30a (Novagen, Madison, Wis.) to produce the S-Calcyon fusion protein containing residues 93-217 of the predicted Calcyon protein as well as an N-terminal tag composed of the 15 residue S peptide of ribonuclease S (Richards, F. M., et al., The Enzymes. ed.: Boyer, P. D., Academic Press, N.Y., pp. 647-806 (1971)). The S-β-galactosidase fusion protein was composed of bacterial β-galactosidase protein tagged at its N-terminus with the S peptide. Fusion proteins were induced in BL2I(DE3) E. coli with IPTG, and coupled to S-agarose resin (Novagen, Madison, Wis.) by incubating soluble fractions of bacterial lysates with resin for 1 h at RT Following incubation, unbound proteins were eliminated by washing the resin three times in 50 volumes of 25 mM HEPES (pH 7.4), 50 mM NaCl. […]
A human embryonic kidney (HEK) 293 cell line, designated D1 HEK293, that stably expresses hD1 receptors was used to test the ability of S-Calcyon to interact with full-length D1 DA receptors. […] Proteins retained by the S-tagged target polypeptides were analyzed by immunoblotting with D1 receptor antibodies as described above. […]

T2 sequence (P21728 whole entry): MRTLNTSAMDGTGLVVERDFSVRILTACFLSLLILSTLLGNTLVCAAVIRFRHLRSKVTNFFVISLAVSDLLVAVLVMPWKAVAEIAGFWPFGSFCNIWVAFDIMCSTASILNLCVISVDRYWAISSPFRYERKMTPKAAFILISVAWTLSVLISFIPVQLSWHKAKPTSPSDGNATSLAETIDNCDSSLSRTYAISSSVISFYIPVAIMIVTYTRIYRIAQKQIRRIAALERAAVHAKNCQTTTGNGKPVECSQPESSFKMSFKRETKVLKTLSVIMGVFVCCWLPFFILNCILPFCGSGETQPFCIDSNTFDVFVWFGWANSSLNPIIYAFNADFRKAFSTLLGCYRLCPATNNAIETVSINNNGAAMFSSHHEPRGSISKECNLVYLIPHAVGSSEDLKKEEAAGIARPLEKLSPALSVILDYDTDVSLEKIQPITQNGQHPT

B1: S-Calcyon: fusion protein containing residues 93-217 of Calcyon with N-terminal 15 residue S peptide tag (protein)
chain: KETAAAKFERQHMDSMALLGCVLIMYKAIWYDQFTCPDGFLLRHKICTPLTLEMYYTEMDPERHRSILAAIGAYPLSRKHGTETPAAWGDGYRAAKEERKGPTQAGAAAAATEPPGKPSAKAEKEAARKAAGSAAPPPAQ
Regarding B1, in assay [1], the “pull-down of GSTD1 by resin-immobilized S-tagged protein” value is on record as “A D1 antibody reactive band of similar size was present”. Further, in assay [2], the “precipitation of PIP2 containing vesicles vs vesicles of PC and PE only” value is recorded as “more than five times more effectively”. Also, the “pull-down of full-length D1 receptor by resin-immobilized S-tagged protein” value in assay [3] is recorded as “Bands of similar size were also present”.

(Values after patent publication US6469141B1, “D1-like dopamine receptor activity modifying protein” (Medical College of Georgia Research Institute Inc., priority 1998, dated 2002).)
